# Measured values taken from patent publication US20200062804A1 (ADRX, published 2020).
# Several values for one entry are separate records, joined by “and”; a condition that tells them apart may be missing. Equal entries are not always repeated. Non-standard residues stand in square brackets, D forms with d. No end group written: not given here. hArg = N=C(N)NCCCC[C@H](N)C(=O)O; Chg = N[C@H](C(=O)O)C1CCCCC1; NMeK = CN[C@@H](CCCCN)C(=O)O; Phg = N[C@H](C(=O)O)c1ccccc1
# T1: Nat1 (LTIITLE) (also: TFA salt)
# T1 peptide: LTIITLE
# B1: rfefrhr (peptide)
# peptide: [dR][dF][dE][dF][dR][dH][dR]
# B2: qfhylcrr (peptide)
# peptide: [dQ][dF][dH][dY][dK][dR][dR]
# B3: LRIRRYR (peptide)
# peptide: LRIRRYR
# B4: FFRLYLR (peptide)
# peptide: FFRLYLR
# B5: rfyrrhr (peptide)
# peptide: [dR][dF][dY][dR][dR][dH][dR]
# B6: ffrfhrr (peptide)
# peptide: [dF][dF][dR][dF][dH][dR][dR]
# B7: LWIKYHR (peptide)
# peptide: LWIKYHR
# B8: YTRITYH (peptide)
# peptide: YTRITYH
# B9: IRIRRYR (peptide)
# peptide: IRIRRYR
# B10: LRI(N-Me)KYHR (peptide)
# peptide: LRI[NMeK]YHR
# B11: klkway (peptide)
# peptide: [dK][dL][dK][dW][dA][dY]
# B12: Ile-Arg-Phg-Arg-Arg-Tyr-Arg (peptide)
# peptide: IR[Phg]RRYR
# B13: IRLRRYR (peptide)
# peptide: IRLRRYR
# B14: hwrwywk (peptide)
# peptide: [dH][dW][dR][dW][dY][dW][dK]
# B15: LRIRFFR (peptide)
# peptide: LRIRFFR
# B16: hwryhrr (peptide)
# peptide: [dH][dW][dR][dY][dH][dR][dR]
# B17: Ac-IRIRRYR-NH2 (peptide)
# peptide: Ac-IRIRRYR-NH2
# B18: rqwyhwr (peptide)
# peptide: [dR][dQ][dW][dY][dH][dW][dR]
# B19: LVIRYHR (peptide)
# peptide: LVIRYHR
# B20: klkklh (peptide)
# peptide: [dK][dL][dK][dK][dL][dH]
# B21: rwywhhr (peptide)
# peptide: [dR][dW][dY][dW][dH][dH][dR]
# B22: FRLYIH (peptide)
# peptide: FRLYIH
# B23: rmwrhhr (peptide)
# peptide: [dR][dM][dW][dR][dH][dH][dR]
# B24: WTIKLWH (peptide)
# peptide: WTIKLWH
# B25: YTIQLWH (peptide)
# peptide: YTIQLWH
# B26: YRLRYLR (peptide)
# peptide: YRLRYLR
# B27: LYIKYHR (peptide)
# peptide: LYIKYHR
# B28: ILRLYFR (peptide)
# peptide: ILRLYFR
# B29: rirwywk (peptide)
# peptide: [dR][dI][dR][dW][dY][dW][dK]
# B30: RFYRYLR (peptide)
# peptide: RFYRYLR
# B31: fwrwhrr (peptide)
# peptide: [dF][dW][dR][dW][dH][dR][dR]
# B32: yqyyyqr (peptide)
# peptide: [dY][dQ][dY][dY][dY][dQ][dR]
# B33: IRIRHYRP (peptide)
# peptide: IRIRHYRP
# B34: rfhrhhr (peptide)
# peptide: [dR][dF][dH][dR][dH][dH][dR]
# B35: hlriwrn (peptide)
# peptide: [dH][dL][dR][dI][dW][dR][dN]
# B36: LRIKYHR (peptide)
# peptide: LRIKYHR
# B37: wwrwyrr (peptide)
# peptide: [dW][dW][dR][dW][dY][dR][dR]
# B38: lwrryhr (peptide)
# peptide: [dL][dW][dR][dR][dY][dH][dR]
# B39: kwrwyrr (peptide)
# peptide: [dK][dW][dR][dW][dY][dR][dR]
# B40: hqrryqr (peptide)
# peptide: [dH][dQ][dR][dR][dY][dQ][dR]
# B41: IRIRRWR (peptide)
# peptide: IRIRRWR
# B42: IRIRAYR (peptide)
# peptide: IRIRAYR
# B43: LTIRYYK (peptide)
# peptide: LTIRYYK
# B44: klkwqw (peptide)
# peptide: [dK][dL][dK][dW][dQ][dW]
# B45: LTRILTH (peptide)
# peptide: LTRILTH
# B46: IRIRRYE (peptide)
# peptide: IRIRRYE
# B47: yqwrhwr (peptide)
# peptide: [dY][dQ][dW][dR][dH][dW][dR]
# B48: LFRYYQK (peptide)
# peptide: LFRYYQK
# B49: Ile-Arg-Chg-Arg-Arg-Tyr-Arg (peptide)
# peptide: IR[Chg]RRYR
# B50: ffrfhhr (peptide)
# peptide: [dF][dF][dR][dF][dH][dH][dR]
# B51: LRIYRVR (peptide)
# peptide: LRIYRVR
# B52: LRLRHYR (peptide)
# peptide: LRLRHYR
# B53: TFVFRHR (peptide)
# peptide: TFVFRHR
# B54: rwrwhhr (peptide)
# peptide: [dR][dW][dR][dW][dH][dH][dR]
# B55: IAIRRYR (peptide)
# peptide: IAIRRYR
# B56: hqryywr (peptide)
# peptide: [dH][dQ][dR][dY][dY][dW][dR]
# B57: kyrwyrh (peptide)
# peptide: [dK][dY][dR][dW][dY][dR][dH]
# B58: LTRILWH (peptide)
# peptide: LTRILWH
# B59: fwrwhr (peptide)
# peptide: [dF][dW][dR][dW][dH][dR]
# B60: LRIYHHK (peptide)
# peptide: LRIYHHK
# B61: Phg-Arg-Phg-Arg-Arg-Tyr-Arg (peptide)
# peptide: [Phg]R[Phg]RRYR
# B62: LRIRYWK (peptide)
# peptide: LRIRYWK
# B63: rwhwhwr (peptide)
# peptide: [dR][dW][dH][dW][dH][dW][dR]
# B64: sfwykrr (peptide)
# peptide: [dS][dF][dW][dY][dK][dR][dR]
# B65: LYIRYLR (peptide)
# peptide: LYIRYLR
# B66: Ile-homoArg-Ile-homoArg-Arg-Tyr-Arg (peptide)
# peptide: I[hArg]I[hArg]RYR
# B67: ARIRRYR (peptide)
# peptide: ARIRRYR
# Target: T1, Nat1 (LTIITLE)
# Assay: cell-based or functional assay
row,"IC50, Thiofiavin T aggregation assay",Binder
1,117 nM,B1
2,23900 nM,B2
3,76 nM,B3
4,13400 nM,B4
5,81 nM,B5
6,104 nM,B6
7,76 nM,B7
8,150 nM,B8
9,27 nM,B9
10,125 nM,B10
11,12600 nM,B11
12,124 nM,B12
13,153 nM,B13
14,159 nM,B14
15,90 nM,B15
16,139 nM,B16
17,69 nM,B17
18,132 nM,B18
19,101 nM,B19
20,71 nM,B20
21,115 nM,B21
22,16400 nM,B22
23,13200 nM,B23

row,"IC50, Thiofiavin T aggregation assay",Binder
1,84 nM,B24
2,46000 nM,B25
3,99 nM,B26
4,148 nM,B27
5,8970 nM,B28
6,110 nM,B29
7,107 nM,B30
8,147 nM and 164 nM,B31
9,118 nM,B32
10,142 nM,B33
11,30900 nM,B34
12,97 nM,B35
13,71 nM,B36
14,78 nM,B37
15,108 nM,B38
16,75 nM,B39
17,39100 nM,B40
18,76 nM,B41
19,23 nM,B42
20,93 nM,B43
21,7310 nM,B44
22,7370 nM,B45
23,32800 nM,B46

row,"IC50, Thiofiavin T aggregation assay",Binder
1,112 nM,B47
2,100 nM,B48
3,81 nM,B49
4,151 nM,B50
5,81 nM,B51
6,146 nM,B52
7,20300 nM,B53
8,156 nM,B54
9,74 nM,B55
10,138 nM,B56
11,87 nM,B57
12,16200 nM,B58
13,88 nM,B59
14,152 nM,B60
15,5950 nM,B61
16,36 nM,B62
17,145 nM,B63
18,116 nM,B64
19,70 nM,B65
20,30 nM,B66
21,144 nM,B67
